From publication PMC10896696 (The Journal of Cell Biology, 2024)

Biological target: MBP-tag-fused HER2 intracellular domain (ICD, 712 aa-1255 aa) (human, UniProt P04626 712-1255)
Test: SPR

| Binder | Kd |
| --- | --- |
| MBP-tag-fused intracellular domain (ICD) of WT TβRI (148 aa-503 aa) (domain or fragment, human, UniProt P36897 148-503, looked up) CHNRTVIHHRVPNEEDPSLDRPFISEGTTLKDLIYDMTTSGSGSGLPLLVQRTIARTIVLQESIGKGRFGEVWRGKWRGEEVAVKIFSSREERSWFREAEIYQTVMLRHENILGFIAADNKDNGTWTQLWLVSDYHEHGSLFDYLNRYTVTVEGMIKLALSTASGLAHLHMEIVGTQGKPAIAHRDLKSKNILVKKNGTCCIADLGLAVRHDSATDTIDIAPNHRVGTKRYMAPEVLDDSINMKHFESFKRADIYAMGLVFWEIARRCSIGGIHEDYQLPYYDLVPSDPSVEEMRKVVCEQKLRPNIPNRWQSCEALRVMAKIMRECWYANGAARLTALRIKKTLSQLSQQEGIKM | 4.24 nM |
| MBP-tag-fused intracellular domain (ICD) of activated (GGD) TβRI (148 aa-503 aa) (domain or fragment, human, UniProt P36897 148-503, looked up) CHNRTVIHHRVPNEEDPSLDRPFISEGTTLKDLIYDMTTSGSGSGGGLLVQRTIARDIVLQESIGKGRFGEVWRGKWRGEEVAVKIFSSREERSWFREAEIYQTVMLRHENILGFIAADNKDNGTWTQLWLVSDYHEHGSLFDYLNRYTVTVEGMIKLALSTASGLAHLHMEIVGTQGKPAIAHRDLKSKNILVKKNGTCCIADLGLAVRHDSATDTIDIAPNHRVGTKRYMAPEVLDDSINMKHFESFKRADIYAMGLVFWEIARRCSIGGIHEDYQLPYYDLVPSDPSVEEMRKVVCEQKLRPNIPNRWQSCEALRVMAKIMRECWYANGAARLTALRIKKTLSQLSQQEGIKM | 2.68 nM |
